Reference: patent publication US20250236644A1 (University of Washington, published 2025)

Key:
effector peptide cs074B [1] = target: T1, effector peptide cs074B; assay: FRET titration, 2 nM labeled hinge
T1 construct: Chemically synthesized, unlabeled
T1 peptide: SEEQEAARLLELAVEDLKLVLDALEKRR
Procedure: (§1) Dotted lines in spectra indicate acceptor and donor emission peaks. B) Kinetic model describing the coupling of the conformational equilibrium to the binding equilibrium. X and Y: hinge in state X and Y, respectively; P: peptide; YP: peptide bound to hinge in state Y. k₁, k₋₁, k₋₂, and […] the microscopic rate constants. C) FP characterization of unlabeled extended hinge cs074F. From left to right: binding titration at 0.1 nM TAMRA-labeled peptide and varying hinge concentrations; time course after mixing 2 nM TAMRA-labeled peptide and 100 nM hinge fitted with a single-exponential equation (black line); apparent rate constants obtained from single-exponential kinetic fits plotted against absolute hinge concentrations (circles) and fitted with a linear equation (black line). D) FRET-based reversibility experiment using the labeled extended hinge […] introduced in C). Hinge concentration is 30 nM for all traces; 1 μM peptide is added at t=0, 3 μM unlabeled competitor hinge is added after 1 h. E) Top from left to right: schematic representation of the inpainting procedure that adds two helices to the peptide cs074B yielding a three-helix bundle (3hb); cylindrical representation of 3hb_05 bound to hinge cs074; overlay of design model and crystal structure of 3hb_05. Bottom from left to right: SEC traces for hinge cs074, 3hb_05, and a mixture of both; FRET-based titration of 2 nM extended labeled hinge cs074F and varying concentrations of 3hb_05 fitted with a standard binding isotherm (back line); Distance distributions obtained from DEER experiments as described in FIG. 2 (cs074, cs074+peptide cs074B, cs074+3hb_05).
(§2) Titrations were carried out in 96-well format, with 4 replicates per plate and 24 data points per titration (23 steps of two-fold serial dilution of effector (peptide or 3hb) in the presence of double-labeled hinge at a constant concentration of 2 nM) with a final sample volume of 80 μl per well. Titration plates were incubated overnight at room temperature before measuring to ensure complete equilibration. The raw fluorescence signal (donor emission upon acceptor excitation) was fitted to the equation

effector peptide cs221B [2] = target: T2, effector peptide cs221B; assay: FRET titration, 2 nM labeled hinge
T2 construct: Unlabeled
T2 peptide: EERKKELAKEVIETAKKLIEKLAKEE
Procedure: as §1, §2

effector peptide cs201B [3] = target: T3, effector peptide cs201B; assay: FRET titration; 2 nM labeled hinge, effector varied
T3 construct: Unlabeled
T3 peptide: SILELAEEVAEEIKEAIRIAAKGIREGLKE
Procedure: as §1, §2

effector peptide cs201B [4] = target: T3, effector peptide cs201B; assay: FRET kinetics; slope of kapp against peptide concentration
Procedure: (§3) FIG. 14. Columns 1-3: FRET kinetics using extended hinges labeled with AlexaFluor™ 555 and AlexaFluor™ 647 at a constant concentration (2 nM for cs201F and cs074F, 5 nM for cs221F) and corresponding peptides at varying concentrations. Column 4: FP kinetics using TAMRA-labeled peptide cs074B at 2 nM and extended hinge cs074F at varying concentrations. All kinetic traces (rows 1-8) were fitted using a single-exponential equation (black lines). […] The slope of the linear fit gives the observed on rate kₒₙ.
(§4) For FRET kinetics experiments a 2× hinge solution and 8 different 2× effector solutions at different concentrations were prepared separately. 40 μl of each effector solution were mixed with 40 μl hinge solution using a multichannel pipet and the measurement was started immediately after mixing. Fluorescence signals S at each concentration were fitted individually to the equation

effector peptide cs074B [5] = target: T1, effector peptide cs074B; assay: FRET titration; 2 nM labeled hinge, effector varied
Procedure: as §1, §2

effector protein 3hb03 = target: T4, effector protein 3hb03; assay: as above
T4 construct: Three-helix bundle built around peptide cs074B
T4 chain: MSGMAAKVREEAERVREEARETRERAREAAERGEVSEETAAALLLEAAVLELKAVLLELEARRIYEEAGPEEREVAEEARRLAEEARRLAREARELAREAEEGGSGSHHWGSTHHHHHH
Procedure: as §1, §2

effector protein 3hb04 = target: T5, effector protein 3hb04; assay: as above
T5 construct: Three-helix bundle built around peptide cs074B
T5 chain: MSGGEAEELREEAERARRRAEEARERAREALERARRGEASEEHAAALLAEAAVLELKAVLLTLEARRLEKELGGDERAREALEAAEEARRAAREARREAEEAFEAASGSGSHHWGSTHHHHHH
Procedure: as §1, §2

effector protein 3hb05 = target: T6, effector protein 3hb05; assay: as above
T6 construct: Three-helix bundle built around peptide cs074B
T6 chain: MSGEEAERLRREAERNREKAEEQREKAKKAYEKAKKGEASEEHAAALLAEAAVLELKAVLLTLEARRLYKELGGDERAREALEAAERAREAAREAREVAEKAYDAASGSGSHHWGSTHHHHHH
Procedure: as §1, §2

effector protein 3hb08 = target: T7, effector protein 3hb08; assay: as above
T7 construct: Three-helix bundle built around peptide cs074B
T7 chain: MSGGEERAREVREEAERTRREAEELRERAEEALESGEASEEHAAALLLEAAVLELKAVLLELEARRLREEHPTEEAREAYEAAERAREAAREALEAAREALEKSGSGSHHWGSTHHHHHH
Procedure: as §1, §2

effector protein 3hb11 = target: T8, effector protein 3hb11; assay: as above
T8 construct: Three-helix bundle built around peptide cs074B
T8 chain: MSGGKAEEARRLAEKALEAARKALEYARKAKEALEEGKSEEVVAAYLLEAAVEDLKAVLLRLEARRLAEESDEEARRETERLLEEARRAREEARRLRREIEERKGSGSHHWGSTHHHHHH
Procedure: as §1, §2

effector protein 3hb12 = target: T9, effector protein 3hb12; assay: as above
T9 construct: Three-helix bundle built around peptide cs074B
T9 chain: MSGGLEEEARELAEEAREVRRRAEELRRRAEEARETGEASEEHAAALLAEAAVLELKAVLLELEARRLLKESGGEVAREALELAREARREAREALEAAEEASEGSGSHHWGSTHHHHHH
Procedure: as §1, §2

effector peptide cs074B [6] = target: T1, effector peptide cs074B; assay: FRET kinetics; slope of kapp against peptide concentration
Procedure: as §3, §4

effector peptide cs201B [7] = target: T3, effector peptide cs201B; assay: FRET titration; 2 nM labeled hinge, off-target peptide varied
Procedure: (§5) The buffer for all FRET measurements was 20 mM Tris-HCl, 100 mM NaCl, 0.05% v/v TWEEN®20 at pH 8. Fluorescence spectra were recorded at room temperature using a FluoroMax™ spectrometer in a 1 cm×1 cm cuvette at a sample volume of 3 ml. FRET titrations and kinetics measurements were performed at 25° C. in 96-well plates (Corning 3686) using a Synergy Neo2™ plate reader. Excitation wavelength was 520 nm and emission wavelength was 665 nm (except for donor-donor controls for which emission wavelength was 555 nm, see FIG. 13B right column).
as §2

effector peptide cs221B [8] = target: T2, effector peptide cs221B; assay: as above
Procedure: as §5, §2

effector peptide cs201B [9] = target: T3, effector peptide cs201B; assay: FRET titration, 2 nM labeled hinge
Procedure: as §1, §2

effector protein 3hb21 [10] = target: T10, effector protein 3hb21; assay: FRET kinetics; 5 nM hinge, 3hb varied
T10 construct: Three-helix bundle built around peptide cs221B
T10 chain: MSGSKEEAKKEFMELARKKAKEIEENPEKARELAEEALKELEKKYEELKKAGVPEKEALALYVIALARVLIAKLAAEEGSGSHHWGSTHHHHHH
Procedure: (§6) FIG. 18. FRET-based quantitative analysis of the interaction between cs221F and 3hb21. Individual kinetic traces were obtained using a constant hinge concentration of 5 nM and varying 3hb concentrations as indicated by plot labels. Single exponential fits give apparent rate constants that increase linearly with the total 3hb concentration (points in pseudo-first order plot). The linear fit of kₐₚₚ against 3hb concentration gives an observed on rate that is 5 times faster than the observed on rate of the original peptide.
as §4

effector protein 3hb21 [11] = target: T10, effector protein 3hb21; assay: FRET titration; 2 nM hinge cs221F, 3hb varied
Procedure: as §6, §2

effector peptide cs221B [12] = target: T2, effector peptide cs221B; assay: FRET titration; 2 nM labeled hinge, effector varied
Procedure: as §1, §2

effector protein 3hb21 [13] = target: T10, effector protein 3hb21; assay: as above
Procedure: as §1, §2

effector peptide cs221B [14] = target: T2, effector peptide cs221B; assay: FRET kinetics; slope of kapp against peptide concentration
Procedure: as §3, §4

effector protein 3hb21 [15] = target: T10, effector protein 3hb21; assay: FRET kinetics; 5 nM labeled hinge, slope of kapp against 3hb concentration

B1: FRET(extension) cs201F, labeled with AlexaFluor 555 and AlexaFluor 647 (designed binder)
chain: MSGDEEVQEAVERAEELREEAEELIKKARKTGDPELLRKALEALEEAVRAVEEAICRNPDNDEAVETAVRLARELKKVAEELQERAKKTGDPELLKLALRALEVAVRAVELAIKSNPDNDEAVETAVRLARELKKVAEELQERAKKTGDPELLKLALRALEVAVRAVELAIKRNPDNEEAIKTALRLARELRKVAKELIERARKTGDAELLKKALEAARVAVEAVRLAAEYNKENAEKMAELLVELAELAREVADVLIELAEKTGDPELLKKALEVLEEAVEAVRLAIEYDPDHDEAVETAVRLARELKKVAEELQERAKKTGDPELLKLALRALEVAVRAVELAIKSNPDNEEAVETAKRLAEELRKVAELLEERAKETGDPCLQELAKRAKEVADRARELAKKSNPNNGSGSHHWGSTHHHHHH
modifications: the two introduced cysteines stochastically labeled with an equal mixture of AlexaFluor 555 C2 maleimide (donor) and AlexaFluor 647 C2 maleimide (acceptor)
notes: also called FRET-labeled hinge cs201F
Does B1 bind (effector peptide cs074B [1])?
Result: no binding (tested: µM concentrations)

Does B1 bind (effector peptide cs221B [2])?
Result: no binding (tested: µM concentrations)

And the Kd (effector peptide cs201B [3])?
The Kd was 20 nM.

What about the kon (effector peptide cs201B [4]) of the same binder?
Its kon is 4500 M⁻¹ s⁻¹.

B2: FRET(extension) cs074F, labeled with AlexaFluor 555 and AlexaFluor 647 (designed binder)
chain: DEEVQEAVERAEELREEAEELIKKARKTGDPELLRKALEALECAVRAVEEAIKRNPDNDEAVETAVRLARELKKVAEELQERAKKTGDPELLKLALRALKVAVRAVKLAIKSNPDNEEAVKTAVRLARELLKVAEELKERAEKTGDPRLLLLAAEAIAWAIEAVFLAAKASENTEGALEAARAAVKLAEVAKRIAKLLQRDAKKEGDPELLKLALRALELAVRAVELAIKENPDNDEAVETAVRLARELKKVAEELQERAKKTGDPELLKLALRALEVAVRAVELAIKSNPDNEEAVETAKRLAEELRKVAELLEERACETGDPELQELAKRAKEVADRARELAKKSNPNNGSHHHHHH
modifications: the two introduced cysteines stochastically labeled with an equal mixture of AlexaFluor 555 C2 maleimide (donor) and AlexaFluor 647 C2 maleimide (acceptor)
notes: Extended hinge cs074 used in the FRET assays; also called extended labeled hinge cs074F
B2 was tested. Which Kd (effector peptide cs074B [5]) did it give?
The Kd was less than 2 nM.

What about the Kd (effector protein 3hb03) of the same binder?
The Kd was less than 2 nM.

And the Kd (effector protein 3hb04)?
The Kd was less than 2 nM.

What about the Kd (effector protein 3hb05) of the same binder?
The Kd was less than 2 nM.

And the Kd (effector protein 3hb08)?
The Kd was less than 2 nM.

And the Kd (effector protein 3hb11)?
The Kd was less than 2 nM.

What about the Kd (effector protein 3hb12) of the same binder?
Its Kd is less than 2 nM.

And the kon (effector peptide cs074B [6])?
Its kon is 170000 M⁻¹ s⁻¹.

What about the Kd (effector peptide cs201B [7]) of the same binder?
Its Kd is 2500 nM.

What about the Kd (effector peptide cs221B [8]) of the same binder?
The Kd was 130 nM.

B3: FRET(extension) cs221F, labeled with AlexaFluor 555 and AlexaFluor 647 (designed binder)
chain: MSGEMVEEIEKLAEELAKKTKDCEVKKLAKKAAELAKKSTDEMKKEIVKDALELALRTKDEEVIRLALKAAVLAAESDDEEVKEVVKKALEAALKSKDEEVIRLLLLAAVLAAAAARSGSPEEKLEIAKKALELAMKSKDEEVIRLALLAAVLAARSDDEEVLKIVKKALELAMESKDVEVIRLALEAAVLAARSTDPEKKKCVYEALEKAMESKDEEEIKKELKAAVEKARSTEGSGSHHWGSTHHHHHH
modifications: the two introduced cysteines stochastically labeled with an equal mixture of AlexaFluor 555 C2 maleimide (donor) and AlexaFluor 647 C2 maleimide (acceptor)
Does B3 bind (effector peptide cs074B [1])?
Result: no binding (tested: µM concentrations)

Does B3 bind (effector peptide cs201B [9])?
Result: no binding (tested: µM concentrations)

And the “fold faster observed on rate than the original peptide cs221B” value (effector protein 3hb21 [10])?
Its value is 5 fold.

What about the Kd (effector protein 3hb21 [11]) of the same binder?
Its Kd is less than 2 nM.

And the “fold stronger KD than the original peptide cs221B” value (effector protein 3hb21 [11])?
Its value is 20 fold.

What about the Kd (effector peptide cs221B [12]) of the same binder?
Its Kd is 21 nM.

What about the Kd (effector protein 3hb21 [13]) of the same binder?
The Kd was 2.2 nM.

And the kon (effector peptide cs221B [14])?
Its kon is 2600 M⁻¹ s⁻¹.

And the kon (effector protein 3hb21 [15])?
Its kon is 13000 M⁻¹ s⁻¹.
